Results published in paper PMC10945755 (Proceedings of the National Academy of Sciences of the …, 2024).
Where two headings read alike, the source gives them in different places.

B1: RB1CC1(1343-1395) (domain or fragment, UniProt Q8TDY2 1343-1395, looked up)
chain: KENIINDLSDKLKSTMQQQERDKDLIESLSEDRARLLEEKKKLEEEVSKLRSS
B2: GABARAP (natural protein)
chain: MKFVYKEEHPFEKRRSEGEKIRKKYPDRVPVIVEKAPKARIGDLDKKKYLVPSDLTVGQFYFLIRKRIHLRAEDALFFFVNNVIPPTSATMGQLYQEHHEEDFFLYIAYSDESVYGL
B3: NAP1(33-75) (domain or fragment, UniProt Q9H6S1 33-75, looked up)
chain: ESVASHFALVTAYEDIKKRLKDSEKENSLLKKRIRFLEEKLIA
B4: RB1CC1(1450-1594) (domain or fragment, UniProt Q8TDY2 1450-1594, looked up)
chain: HMLSEEKQRIMLLERTLQLKEEENKRLNQRLMSQSMSSVSSRHSEKIAIRDFQVGDLVLIILDERHDNYVLFTVSPTLYFLHSESLPALDLKPGEGASGASRRPWVLGKVMEKEYCQAKKAQNRFKVPLGTKFYRVKAVSWNKKV
B5: TAX1BP1(133-151) (domain or fragment, UniProt Q86VP1 133-151, looked up)
chain: EDEGNSDMLVVTTKAGLLE
B6: Trx-NAP1(1-75) (domain or fragment, UniProt Q9H6S1 1-75, looked up)
chain: MDALVEDDICILNHEKAHKRDTVTPVSIYSGDESVASHFALVTAYEDIKKRLKDSEKENSLLKKRIRFLEEKLIA
B7: NAP1(1-75) (domain or fragment, UniProt Q9H6S1 1-75, looked up)
chain: B6 chain
B8: RB1CC1(1286-1395) (domain or fragment, UniProt Q8TDY2 1286-1395, looked up)
chain: SLVAELQEKLQEEKAKFLEQLEEQEKRKNEEMQNVRTSLIAEQQTNFNTVLTREKMRKENIINDLSDKLKSTMQQQERDKDLIESLSEDRARLLEEKKKLEEEVSKLRSS
B9: RB1CC1(1396-1594) (domain or fragment, UniProt Q8TDY2 1396-1594, looked up)
chain: SFVPSPYVATAPELYGACAPELPGESDRSAVETADEGRVDSAMETSMMSVQENIHMLSEEKQRIMLLERTLQLKEEENKRLNQRLMSQSMSSVSSRHSEKIAIRDFQVGDLVLIILDERHDNYVLFTVSPTLYFLHSESLPALDLKPGEGASGASRRPWVLGKVMEKEYCQAKKAQNRFKVPLGTKFYRVKAVSWNKKV
B10: TAX1BP1(123-151) (domain or fragment, UniProt Q86VP1 123-151, looked up)
chain: SSPVEELLTMEDEGNSDMLVVTTKAGLLE

Columns and labels:
crystal structure = target: the molecule itself; test: crystal structure
TAX1BP1(1-237) [1] = target: T1, TAX1BP1(1-237) (UniProt Q86VP1 1-237, labeled (label not named) in the spectral shift binding assay); test: SEC
T1 sequence (Q86VP1 1-237): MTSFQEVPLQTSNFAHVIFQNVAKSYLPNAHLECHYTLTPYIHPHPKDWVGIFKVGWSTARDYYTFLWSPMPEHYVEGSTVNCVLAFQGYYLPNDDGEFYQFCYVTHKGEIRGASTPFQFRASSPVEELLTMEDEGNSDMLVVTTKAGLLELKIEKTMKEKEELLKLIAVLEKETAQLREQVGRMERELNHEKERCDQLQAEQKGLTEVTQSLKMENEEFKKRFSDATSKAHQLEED

[2] = target: TAX1BP1(1-237)/RB1CC1(1286-1395) complex (UniProt Q86VP1 1-237; Q8TDY2 1286-1395); test: SEC
Sequence of TAX1BP1(1-237)/RB1CC1(1286-1395) complex (Q86VP1 1-237, one chain of several): as the sequence (Q86VP1 1-237) above

[3] = target: TAX1BP1(1-237)/NAP1(1-75)/RB1CC1(1286-1594) ternary complex (UniProt Q86VP1 1-237; Q9H6S1 1-75; Q8TDY2 1286-1594); test: SEC
Sequence of TAX1BP1(1-237)/NAP1(1-75)/RB1CC1(1286-1594) ternary complex (Q86VP1 1-237, one chain of several): as the sequence (Q86VP1 1-237) above

Trx-TAX1BP1(1-237) [4] = target: T2, Trx-TAX1BP1(1-237) (UniProt Q86VP1 1-237); test: AUC
T2 sequence (Q86VP1 1-237): as above

TAX1BP1(1-237) [5] = target: T1, TAX1BP1(1-237); test: SEC; remark: listed apart in the source
TAX1BP1(1-237) [6] = target: T1, TAX1BP1(1-237); test: spectral shift binding assay
GABARAP = target: B2; test: ITC
Trx-TAX1BP1(1-237) [7] = target: T2, Trx-TAX1BP1(1-237); test: SEC
Nano-RB1CC1(1286-1594) = Nano-RB1CC1(1286-1594) (UniProt Q8TDY2 1286-1594); test: SEC
[8] = target: TAX1BP1(1-237)/RB1CC1(1286-1594) complex (Trx-TAX1BP1(1-237) with Nano-RB1CC1(1286-1594)) (UniProt Q86VP1 1-237; Q8TDY2 1286-1594); test: SEC
Sequence of TAX1BP1(1-237)/RB1CC1(1286-1594) complex (Trx-TAX1BP1(1-237) with Nano-RB1CC1(1286-1594)) (Q86VP1 1-237, one chain of several): as the sequence (Q86VP1 1-237) above

[9] = target: TAX1BP1(1-237)/RB1CC1(1286-1594) R1375A (UniProt Q86VP1 1-237; Q8TDY2 1286-1594, R1375A); test: SEC
Sequence of TAX1BP1(1-237)/RB1CC1(1286-1594) R1375A (Q86VP1 1-237, stated change not applied, one chain of several): as the sequence (Q86VP1 1-237) above

TAX1BP1(1-121) = TAX1BP1(1-121) (UniProt Q86VP1 1-121, 15N-labeled in the NMR titrations); test: ITC
Sequence of TAX1BP1(1-121) (Q86VP1 1-121): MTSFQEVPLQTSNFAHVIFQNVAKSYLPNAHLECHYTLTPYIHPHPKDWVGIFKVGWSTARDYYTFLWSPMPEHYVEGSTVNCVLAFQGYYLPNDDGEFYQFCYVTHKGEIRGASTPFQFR

AUC = target: the molecule itself; test: AUC
GABARAPL1 = GABARAPL1 (UniProt Q9H0R8 1-117); test: ITC
Sequence of GABARAPL1 (Q9H0R8 whole entry): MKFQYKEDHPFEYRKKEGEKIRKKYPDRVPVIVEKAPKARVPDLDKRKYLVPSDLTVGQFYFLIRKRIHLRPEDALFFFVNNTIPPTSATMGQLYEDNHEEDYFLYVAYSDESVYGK

GABARAPL2 = GABARAPL2 (UniProt P60520 1-117); test: SEC
Sequence of GABARAPL2 (P60520 whole entry): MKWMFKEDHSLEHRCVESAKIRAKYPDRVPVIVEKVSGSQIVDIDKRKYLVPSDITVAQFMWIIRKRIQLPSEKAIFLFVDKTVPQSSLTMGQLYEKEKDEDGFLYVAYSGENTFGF

For B1, the “stoichiometry N” value (crystal structure) was 2.

B2: binds (TAX1BP1(1-237) [1]); binds [2]; binds [3].

B3: binds (Trx-TAX1BP1(1-237) [4]); binds (TAX1BP1(1-237) [5]).

For B4, the Kd (TAX1BP1(1-237) [6]) was greater than 136 µM.

B5: binds (GABARAP).

B6: binds (Trx-TAX1BP1(1-237) [7]); binds (Nano-RB1CC1(1286-1594)); binds [8].

B7: binds [9].

B8 was tested, and the Kd (TAX1BP1(1-121)) was roughly 4.91 µM, the “stoichiometry N” value (AUC) was 2 and the Kd (TAX1BP1(1-237) [6]) was roughly 1.13 µM.

B9: binds (TAX1BP1(1-237) [1]).

In the case of B10, the Kd (GABARAP) is reported as 4.07 µM, the Kd (GABARAPL1) is reported as 9.54 µM and the binding result (GABARAPL2) is reported as “binds”.
